From PMC9399289

Molecular target: T1, GST-SDE2-FLAG WT (human) (UniProt Q6IQ49)
T1 sequence: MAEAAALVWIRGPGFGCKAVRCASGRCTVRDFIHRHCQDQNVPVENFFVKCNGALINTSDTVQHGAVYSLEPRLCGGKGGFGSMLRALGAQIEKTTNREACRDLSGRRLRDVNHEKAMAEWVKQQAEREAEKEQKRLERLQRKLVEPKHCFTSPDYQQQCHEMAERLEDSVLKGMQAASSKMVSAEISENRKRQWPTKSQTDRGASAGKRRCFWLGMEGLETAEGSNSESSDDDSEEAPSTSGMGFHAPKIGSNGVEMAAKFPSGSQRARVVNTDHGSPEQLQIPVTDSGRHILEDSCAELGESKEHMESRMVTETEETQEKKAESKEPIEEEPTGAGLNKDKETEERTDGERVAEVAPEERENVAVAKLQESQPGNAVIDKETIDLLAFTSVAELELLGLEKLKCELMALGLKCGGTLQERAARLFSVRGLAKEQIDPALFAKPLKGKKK
Experiment: fluorescence anisotropy
Conditions: EMSA: 10 mM Tris-HCl pH 7.5, 50 mM NaCl, 0.5 mM DTT, 0.05 mM EDTA, 3% glycerol, 0.05 mg/ml BSA (or 50 mM Na/K PO4 pH 6.0, 50 mM NaCl, 5 mM DTT), on ice …

Sequence “GACGCTGCCGAATTCTACCAGTGCCTTGCTAGGACATCTTTGCCCACCTGCAGGTTCACCC (double strand) [60-mer dsDNA (EMSA1/EMSA2)]” has a Kd of 24.2 µM.
